From PMC8385403 come the findings set out here.

One test has as its target Rod-B. The test can be described thus: co-sedimentation; filament disassembly assay without His-Aurora-B; Rod-B proteins in kinase buffer (20 mM Tris pH 7.5, 10 mM MgCl2, 1 mM DTT, 50 μM ATP), 60 min at 30 °C, then high-speed centrifugation; filaments to nonfilamentous fraction.
Test [1] has as its target His-survivin (UniProt O15392). The test can be described thus: pull-down (quantification of Coomassie-stained SDS-PAGE). The note with it: mean ± SEM of three independent experiments; parent: est. 1.0; read off a plot.
Test [2] deals with Rod-B phosphorylated by His-Aurora-B. The test can be described thus: co-sedimentation; filament disassembly assay with His-Aurora-B; Rod-B proteins with recombinant His-Aurora-B in kinase buffer (20 mM Tris pH 7.5, 10 mM MgCl2, 1 mM DTT, 50 μM ATP), 60 min at 30 °C, then high-speed centrifugation; filaments to nonfilamentous fraction.
For test [3], the target named is Rod-B^T1847A. The test can be described thus: co-sedimentation; filament disassembly assay without His-Aurora-B; Rod-B proteins in kinase buffer (20 mM Tris pH 7.5, 10 mM MgCl2, 1 mM DTT, 50 μM ATP), 60 min at 30 °C, then high-speed centrifugation; filaments to nonfilamentous fraction.
Test [4] deals with Rod-B^T1847A. The test can be described thus: co-sedimentation; filament disassembly assay with His-Aurora-B; Rod-B proteins with recombinant His-Aurora-B in kinase buffer (20 mM Tris pH 7.5, 10 mM MgCl2, 1 mM DTT, 50 μM ATP), 60 min at 30 °C, then high-speed centrifugation; filaments to nonfilamentous fraction.
For test [5], the target named is His-survivin (UniProt O15392). Description: pull-down; direct pull-down; His-survivin proteins (40-45 μg) held on Ni2+-NTA beads, Rod-B proteins (40-45 μg) added; Buffer B: 20 mM Tris-HCl pH 8, 275 mM NaCl, 5% glycerol, 1% NP-40, 30 mM imidazole; 4 °C; eluted with 250 mM imidazole; Coomassie-stained SDS-PAGE.

Rod-B phosphorylated by His-Aurora-B, sequence (P35580 whole entry): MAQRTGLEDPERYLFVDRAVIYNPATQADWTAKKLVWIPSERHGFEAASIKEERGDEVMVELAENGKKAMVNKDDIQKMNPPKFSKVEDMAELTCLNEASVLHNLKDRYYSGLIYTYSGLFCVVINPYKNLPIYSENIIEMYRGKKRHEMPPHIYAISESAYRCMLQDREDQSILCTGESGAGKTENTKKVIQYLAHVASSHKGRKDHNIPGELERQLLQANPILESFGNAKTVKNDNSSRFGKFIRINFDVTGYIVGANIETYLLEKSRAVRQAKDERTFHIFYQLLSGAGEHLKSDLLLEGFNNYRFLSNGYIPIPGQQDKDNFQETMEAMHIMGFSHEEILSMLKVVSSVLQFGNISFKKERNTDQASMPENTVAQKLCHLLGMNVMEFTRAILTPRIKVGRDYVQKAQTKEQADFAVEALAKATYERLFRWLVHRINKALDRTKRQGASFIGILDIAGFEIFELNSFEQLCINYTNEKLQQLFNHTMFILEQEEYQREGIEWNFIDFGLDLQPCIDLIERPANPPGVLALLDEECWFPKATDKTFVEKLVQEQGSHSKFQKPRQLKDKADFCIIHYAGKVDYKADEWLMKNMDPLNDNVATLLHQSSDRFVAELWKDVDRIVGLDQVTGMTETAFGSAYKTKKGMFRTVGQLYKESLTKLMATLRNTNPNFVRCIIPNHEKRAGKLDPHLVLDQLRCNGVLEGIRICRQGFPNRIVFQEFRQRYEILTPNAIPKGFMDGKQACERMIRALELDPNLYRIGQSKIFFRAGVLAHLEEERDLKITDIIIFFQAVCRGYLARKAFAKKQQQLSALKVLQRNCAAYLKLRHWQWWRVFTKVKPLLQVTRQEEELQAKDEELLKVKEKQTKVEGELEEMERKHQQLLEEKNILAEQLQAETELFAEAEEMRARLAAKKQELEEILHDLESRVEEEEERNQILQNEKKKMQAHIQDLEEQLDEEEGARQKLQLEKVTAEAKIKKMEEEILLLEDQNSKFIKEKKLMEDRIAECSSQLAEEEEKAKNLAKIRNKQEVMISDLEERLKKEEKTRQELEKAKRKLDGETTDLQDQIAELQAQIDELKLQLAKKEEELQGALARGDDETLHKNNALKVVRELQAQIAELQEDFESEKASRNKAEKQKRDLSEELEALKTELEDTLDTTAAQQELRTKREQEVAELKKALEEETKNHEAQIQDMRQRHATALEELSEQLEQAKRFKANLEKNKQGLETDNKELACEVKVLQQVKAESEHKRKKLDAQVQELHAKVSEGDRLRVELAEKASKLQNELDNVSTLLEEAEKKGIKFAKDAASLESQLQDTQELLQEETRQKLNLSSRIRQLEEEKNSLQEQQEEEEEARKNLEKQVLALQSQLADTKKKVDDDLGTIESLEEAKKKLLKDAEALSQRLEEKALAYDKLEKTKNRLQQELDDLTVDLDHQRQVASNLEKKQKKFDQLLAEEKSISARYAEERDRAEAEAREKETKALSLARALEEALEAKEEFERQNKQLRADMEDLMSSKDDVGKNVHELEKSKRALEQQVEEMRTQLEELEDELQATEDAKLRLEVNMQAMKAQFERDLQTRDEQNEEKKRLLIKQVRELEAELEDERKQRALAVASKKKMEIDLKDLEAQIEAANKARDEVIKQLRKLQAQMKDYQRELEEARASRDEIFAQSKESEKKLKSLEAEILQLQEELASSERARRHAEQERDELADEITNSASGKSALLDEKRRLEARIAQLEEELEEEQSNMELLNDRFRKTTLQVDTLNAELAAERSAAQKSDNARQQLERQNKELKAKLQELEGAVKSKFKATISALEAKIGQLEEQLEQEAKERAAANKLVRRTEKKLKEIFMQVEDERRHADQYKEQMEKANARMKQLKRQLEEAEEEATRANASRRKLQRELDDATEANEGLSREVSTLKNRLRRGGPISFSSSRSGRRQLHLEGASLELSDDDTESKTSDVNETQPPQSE
Rod-B, sequence (P35580 whole entry): as above

In the test with Rod-B, Rod-B (domain or fragment) came in with a percent in the nonfilamentous fraction of 28%.
On to Rod-B T1847A, for which the ratio to parent with His-survivin [1] was 1.1.
For “Rod-B phosphorylated by His-Aurora-B (domain or fragment)”, the percent in the nonfilamentous fraction in test [2] was 42%.
Regarding Rod-B^T1847A (domain or fragment), the percent in the nonfilamentous fraction came out at 34% with Rod-B^T1847A [3] and 36.8% with Rod-B^T1847A [4].
For the substance Rod-B^T1847D (domain or fragment), the percent reduction of binding to survivin relative to Rod-B with His-survivin [5] worked out at 80%.
